The source of these data is patent publication US20250262271A1 (ARIZONA BOARD OF REGENTS ON BEHALF OF THE UNIVERSITY OF …, published 2025).

For this test, the target named is T1, Kog1-FLAG (Saccharomyces cerevisiae, UniProt P38873 1-1557).
T1 construct: Bait of the TORC1 immunopurifications; also called TORC1 subunit Kog1/Raptor with FLAG tag; TORC1 (as purified through Kog1-FLAG); not shown: FLAG tag
Kind of test: co-immunopurification after DSP crosslinking, Western blot; long term amino acid and glucose starvation. For orientation: In western blotting, separated proteins are transferred to a membrane and probed.

T1 sequence (P38873 whole entry): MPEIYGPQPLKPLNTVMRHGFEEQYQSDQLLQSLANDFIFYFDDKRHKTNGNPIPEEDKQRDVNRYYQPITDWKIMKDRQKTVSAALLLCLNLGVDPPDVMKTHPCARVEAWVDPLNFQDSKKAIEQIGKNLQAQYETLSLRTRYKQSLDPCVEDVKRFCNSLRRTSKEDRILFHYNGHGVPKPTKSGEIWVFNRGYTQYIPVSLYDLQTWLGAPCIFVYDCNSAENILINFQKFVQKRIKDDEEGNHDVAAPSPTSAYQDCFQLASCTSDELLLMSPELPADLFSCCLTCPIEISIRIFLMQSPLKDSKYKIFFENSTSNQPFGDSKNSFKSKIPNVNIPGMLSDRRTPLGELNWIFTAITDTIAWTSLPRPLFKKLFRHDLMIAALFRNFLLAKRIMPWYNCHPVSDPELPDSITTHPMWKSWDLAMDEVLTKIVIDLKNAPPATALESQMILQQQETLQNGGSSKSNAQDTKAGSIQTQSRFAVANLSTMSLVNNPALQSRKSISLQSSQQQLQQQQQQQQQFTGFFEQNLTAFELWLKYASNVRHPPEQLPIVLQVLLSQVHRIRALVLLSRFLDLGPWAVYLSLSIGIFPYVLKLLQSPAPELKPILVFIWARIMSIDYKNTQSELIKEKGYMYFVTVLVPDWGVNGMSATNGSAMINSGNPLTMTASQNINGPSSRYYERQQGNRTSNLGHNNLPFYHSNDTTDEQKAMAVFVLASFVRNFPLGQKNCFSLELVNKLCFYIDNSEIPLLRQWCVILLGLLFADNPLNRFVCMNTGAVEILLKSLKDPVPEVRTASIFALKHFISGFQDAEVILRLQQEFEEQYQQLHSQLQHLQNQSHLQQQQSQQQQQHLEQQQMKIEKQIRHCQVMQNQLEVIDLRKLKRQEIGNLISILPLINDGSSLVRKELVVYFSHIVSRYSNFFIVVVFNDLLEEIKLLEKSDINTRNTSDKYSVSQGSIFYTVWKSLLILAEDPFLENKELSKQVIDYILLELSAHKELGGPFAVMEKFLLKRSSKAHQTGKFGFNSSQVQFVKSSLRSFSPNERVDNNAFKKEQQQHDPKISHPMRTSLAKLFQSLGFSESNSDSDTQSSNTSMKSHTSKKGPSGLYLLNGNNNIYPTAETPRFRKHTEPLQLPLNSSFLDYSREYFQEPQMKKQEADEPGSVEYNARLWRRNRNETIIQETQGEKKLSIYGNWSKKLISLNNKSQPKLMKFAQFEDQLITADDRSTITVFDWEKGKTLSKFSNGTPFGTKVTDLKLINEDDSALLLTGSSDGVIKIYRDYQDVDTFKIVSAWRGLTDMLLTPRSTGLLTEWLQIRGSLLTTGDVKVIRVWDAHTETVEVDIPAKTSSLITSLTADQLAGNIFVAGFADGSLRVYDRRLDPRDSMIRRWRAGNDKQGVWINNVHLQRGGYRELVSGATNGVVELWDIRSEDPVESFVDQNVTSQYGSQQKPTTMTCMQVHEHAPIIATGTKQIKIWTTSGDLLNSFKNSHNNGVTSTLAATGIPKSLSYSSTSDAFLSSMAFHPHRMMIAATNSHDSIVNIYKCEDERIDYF

B1: GFP-Ait1 (other)
chain: MVRLNHAASYFMPIFCSTRPHIVILSALFSISLFSLFYASSELLLHQYDDPLMFKPNSQDYFRTFLLGLFSPFLYYFLKTFLFNINQRFLILNLIVDFPINDVFMLLILIGLAYPQVQDHEGGTIKHKECSWHIIPRQAYIFGISWALGEFTICIIGNLFNYQEIADPNINSGFTHQESANTYCNNNDMSHNDDCGCSTEYRPNVVDRSDITLSKCIEVRNDSSSISNNVYSSEYHPIKPLRSSSSTYGSIRQQPHENKKQLHVPDNSQDDTIIMMNPIDNSLKLTTLDTGDLSFPIDEEQPILKKSFGYTWAVPNENTQNTTKSFTPIKRFIAFSTAYQLVTGLLLMILVVGSNIMLTIGESLILSMYFVYVRGHEGLFTPVVNYFGSRTISNFILCVIIPFISLNFLINTSIYLRRELDDWFNNSQGEFEDDDENTISKRVATNQEYQHPLSANYISMDSPDVINSSPGHFGMNSGQLLGNTTLYYGSLNGDDDDMTNDSALLRFCKKLVKNWRALARNDSFVLGVMVSWSLLVFVTGILSTVYI
notes: Expressed in S. cerevisiae (W303) and immunopurified from DSP-crosslinked, digitonin-treated lysate; also called Ait1-GFP; GFP-tagged Ydl180w; not shown: GFP tag
Consider B1, for which the “co-purified amount relative to log phase growth” value turned out to be 50%.
